This note sets out measurements from publication PMC9039348.

The target of this assay is microtubules (MTs) polymerised from porcine brain tubulin, taxol-stabilised (porcine) (UniProt P02550). The assay can be described thus: co-sedimentation; GST-rMap7D2 proteins incubated with 0.4 mg/ml taxol-stabilised MTs in polymerization buffer (80 mM PIPES/NaOH pH 6.8, 1 mM MgCl2, 1 mM EGTA, 1 mM GTP) with 15 μM taxol, 20 min at 37°C; centrifuged at 100,000g for 30 min at 37°C through a 50% sucrose cushion; supernatant and pellet by SDS-PAGE, CBB staining, densitometer; Scatchard analysis.

For orientation: Kd means a measure of binding affinity in units of concentration. One may read the stoichiometry N as the number of molecules, sites or subunits per partner or assembly.

Turning to “GST-rMap7D2 (full length) (from UniProt D4A4L4 1-763) (natural protein)”, the equilibrium dissociation constant (Kd) stood at 600 nM. The substance further showed a stoichiometry N (scale: tubulin α/β heterodimers per GST-rMap7D2 molecule) of 10.
